T1: human beta-Klotho (KLB) (human, UniProt Q86Z14 53-997)
T1 construct: also called human KLB
T1 sequence (looked up): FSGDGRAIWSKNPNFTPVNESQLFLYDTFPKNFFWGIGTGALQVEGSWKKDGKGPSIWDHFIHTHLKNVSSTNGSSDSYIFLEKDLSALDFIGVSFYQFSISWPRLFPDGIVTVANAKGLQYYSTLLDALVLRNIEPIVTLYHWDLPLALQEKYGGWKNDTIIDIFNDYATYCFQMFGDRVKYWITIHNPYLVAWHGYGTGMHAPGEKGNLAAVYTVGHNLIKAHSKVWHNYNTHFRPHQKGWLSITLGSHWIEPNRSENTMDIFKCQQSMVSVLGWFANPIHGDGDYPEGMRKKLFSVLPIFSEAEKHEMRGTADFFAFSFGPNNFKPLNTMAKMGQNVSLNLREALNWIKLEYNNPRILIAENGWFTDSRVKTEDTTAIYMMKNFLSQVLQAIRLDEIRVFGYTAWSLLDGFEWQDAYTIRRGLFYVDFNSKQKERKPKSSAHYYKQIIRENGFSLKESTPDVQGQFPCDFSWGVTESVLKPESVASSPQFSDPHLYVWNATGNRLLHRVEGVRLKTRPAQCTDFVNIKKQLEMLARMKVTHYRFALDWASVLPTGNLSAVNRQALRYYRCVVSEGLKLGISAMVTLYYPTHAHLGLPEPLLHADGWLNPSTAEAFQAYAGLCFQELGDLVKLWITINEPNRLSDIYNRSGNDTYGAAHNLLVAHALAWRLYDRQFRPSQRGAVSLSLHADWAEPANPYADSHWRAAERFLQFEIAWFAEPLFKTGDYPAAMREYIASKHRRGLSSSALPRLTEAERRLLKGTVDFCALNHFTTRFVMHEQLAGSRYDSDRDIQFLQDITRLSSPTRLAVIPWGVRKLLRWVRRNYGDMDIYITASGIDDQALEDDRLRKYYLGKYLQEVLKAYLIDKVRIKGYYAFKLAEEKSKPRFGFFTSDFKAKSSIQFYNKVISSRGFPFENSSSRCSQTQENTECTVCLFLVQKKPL


How the values were obtained:
[1] = molecular target: human FGFR1c/KLB cell surface receptor complex on iLite FGF21 reporter cells (human, UniProt P11362 22-822; Q86Z14 1-1044); test: cell-based or functional assay; on Mean E max (%): reference of the scale not given here
human beta-Klotho (KLB) = molecular target: T1, human beta-Klotho (KLB); test: BLI off-rate screen (Octet), Ab captured via Fc;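 further: antibody supernatants applied at 25 µg/mL, dissociation monitored over 1800 s in D-PBS with 0.1% BSA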

Sequence of human FGFR1c/KLB cell surface receptor complex on iLite FGF21 reporter cells (P11362 22-822, chain 1 of 2): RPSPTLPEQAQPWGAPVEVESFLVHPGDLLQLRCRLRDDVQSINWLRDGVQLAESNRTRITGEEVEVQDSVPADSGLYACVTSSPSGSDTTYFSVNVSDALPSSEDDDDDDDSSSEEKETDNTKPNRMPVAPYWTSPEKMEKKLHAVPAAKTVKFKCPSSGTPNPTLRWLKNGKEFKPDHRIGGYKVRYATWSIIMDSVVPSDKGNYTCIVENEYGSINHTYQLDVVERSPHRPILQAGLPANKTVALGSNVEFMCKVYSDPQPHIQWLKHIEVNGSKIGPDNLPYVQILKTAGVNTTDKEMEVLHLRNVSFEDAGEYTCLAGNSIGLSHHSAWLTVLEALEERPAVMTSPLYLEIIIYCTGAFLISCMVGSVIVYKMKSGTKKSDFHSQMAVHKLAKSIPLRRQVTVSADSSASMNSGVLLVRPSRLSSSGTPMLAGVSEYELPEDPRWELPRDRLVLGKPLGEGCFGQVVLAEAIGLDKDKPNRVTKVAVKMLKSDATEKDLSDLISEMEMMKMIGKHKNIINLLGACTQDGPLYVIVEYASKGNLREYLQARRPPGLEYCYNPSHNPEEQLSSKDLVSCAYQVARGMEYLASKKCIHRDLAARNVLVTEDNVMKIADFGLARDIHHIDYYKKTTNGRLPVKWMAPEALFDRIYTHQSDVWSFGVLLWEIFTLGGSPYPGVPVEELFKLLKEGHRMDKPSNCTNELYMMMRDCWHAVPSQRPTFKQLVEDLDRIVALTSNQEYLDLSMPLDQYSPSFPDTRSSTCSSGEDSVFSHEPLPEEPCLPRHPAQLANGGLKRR
Sequence of human FGFR1c/KLB cell surface receptor complex on iLite FGF21 reporter cells (Q86Z14 whole entry, chain 2 of 2): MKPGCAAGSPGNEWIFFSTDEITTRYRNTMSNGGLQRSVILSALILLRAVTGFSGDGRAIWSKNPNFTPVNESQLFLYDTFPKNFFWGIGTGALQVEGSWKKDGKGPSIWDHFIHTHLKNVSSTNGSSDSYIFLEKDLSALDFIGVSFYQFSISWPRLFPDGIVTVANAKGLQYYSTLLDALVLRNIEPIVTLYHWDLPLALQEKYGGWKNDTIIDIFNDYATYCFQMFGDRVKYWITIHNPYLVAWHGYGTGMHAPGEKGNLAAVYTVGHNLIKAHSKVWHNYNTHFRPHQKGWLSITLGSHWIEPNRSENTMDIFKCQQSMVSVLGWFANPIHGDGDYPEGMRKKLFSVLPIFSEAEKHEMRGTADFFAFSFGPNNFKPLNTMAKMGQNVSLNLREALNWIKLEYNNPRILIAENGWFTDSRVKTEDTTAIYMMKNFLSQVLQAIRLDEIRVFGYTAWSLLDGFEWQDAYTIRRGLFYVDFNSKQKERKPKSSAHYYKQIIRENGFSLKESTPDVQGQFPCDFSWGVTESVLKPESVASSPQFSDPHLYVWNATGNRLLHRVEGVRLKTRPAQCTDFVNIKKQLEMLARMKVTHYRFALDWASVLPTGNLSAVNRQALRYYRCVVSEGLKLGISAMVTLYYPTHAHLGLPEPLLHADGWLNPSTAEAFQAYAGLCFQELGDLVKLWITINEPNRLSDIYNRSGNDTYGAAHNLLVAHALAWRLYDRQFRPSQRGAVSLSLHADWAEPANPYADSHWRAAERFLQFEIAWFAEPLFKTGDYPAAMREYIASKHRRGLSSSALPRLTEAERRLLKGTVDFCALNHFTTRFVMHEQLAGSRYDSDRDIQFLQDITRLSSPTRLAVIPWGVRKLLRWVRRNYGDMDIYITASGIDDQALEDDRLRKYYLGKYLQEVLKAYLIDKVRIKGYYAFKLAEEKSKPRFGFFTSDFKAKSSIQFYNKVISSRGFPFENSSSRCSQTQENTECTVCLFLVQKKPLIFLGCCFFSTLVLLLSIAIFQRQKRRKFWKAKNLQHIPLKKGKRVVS

Binder	Mean E max (%) [1] [%]	Mean EC50 [1] [nM]	koff (human beta-Klotho (KLB)) [s⁻¹]
16H7 variant, light chain N25H (antibody, human IgG4 S228P, lambda, V domains shown, IgG4 backbone) VH: not shown VL: SYVLTQPPSVSVAPGQTARITCGGHNIGSESVHWYQQKPGQAPVLVVYDDSDRPSGIPERFSGSNSGNTATLTISRVEAGDEADYYCQVWDGNSDHVVFGGGTKLTVLG	106	0.137	3e-05
16H7 variant, light chain N26M (antibody, human IgG4 S228P, lambda, V domains shown, IgG4 backbone) VH: not shown VL: SYVLTQPPSVSVAPGQTARITCGGNMIGSESVHWYQQKPGQAPVLVVYDDSDRPSGIPERFSGSNSGNTATLTISRVEAGDEADYYCQVWDGNSDHVVFGGGTKLTVLG	111	0.153	2.2e-05
16H7 variant, light chain N26P (antibody, human IgG4 S228P, lambda, V domains shown, IgG4 backbone) VH: not shown VL: SYVLTQPPSVSVAPGQTARITCGGNPIGSESVHWYQQKPGQAPVLVVYDDSDRPSGIPERFSGSNSGNTATLTISRVEAGDEADYYCQVWDGNSDHVVFGGGTKLTVLG	100	0.099	5.1e-05
16H7 variant, light chain N26A (antibody, human IgG4 S228P, lambda, V domains shown, IgG4 backbone) VH: not shown VL: SYVLTQPPSVSVAPGQTARITCGGNAIGSESVHWYQQKPGQAPVLVVYDDSDRPSGIPERFSGSNSGNTATLTISRVEAGDEADYYCQVWDGNSDHVVFGGGTKLTVLG	98	0.106	4.6e-06
16H7 variant, light chain N25R (antibody, human IgG4 S228P, lambda, V domains shown, IgG4 backbone) VH: not shown VL: SYVLTQPPSVSVAPGQTARITCGGRNIGSESVHWYQQKPGQAPVLVVYDDSDRPSGIPERFSGSNSGNTATLTISRVEAGDEADYYCQVWDGNSDHVVFGGGTKLTVLG	104	0.178	4.1e-05
16H7 variant, light chain N26E (antibody, human IgG4 S228P, lambda, V domains shown, IgG4 backbone) VH: not shown VL: SYVLTQPPSVSVAPGQTARITCGGNEIGSESVHWYQQKPGQAPVLVVYDDSDRPSGIPERFSGSNSGNTATLTISRVEAGDEADYYCQVWDGNSDHVVFGGGTKLTVLG	106	0.106	7.2e-05
16H7 variant, light chain N25Q (antibody, human IgG4 S228P, lambda, V domains shown, IgG4 backbone) VH: not shown VL: SYVLTQPPSVSVAPGQTARITCGGQNIGSESVHWYQQKPGQAPVLVVYDDSDRPSGIPERFSGSNSGNTATLTISRVEAGDEADYYCQVWDGNSDHVVFGGGTKLTVLG	102	0.096	1e-07
16H7 variant, light chain N25S (antibody, human IgG4 S228P, lambda, V domains shown, IgG4 backbone) VH: not shown VL: SYVLTQPPSVSVAPGQTARITCGGSNIGSESVHWYQQKPGQAPVLVVYDDSDRPSGIPERFSGSNSGNTATLTISRVEAGDEADYYCQVWDGNSDHVVFGGGTKLTVLG	98	0.131	4.4e-05

Other lines, results leading:

Mean E max (%) [1] [%]	Mean EC50 [1] [nM]	koff (human beta-Klotho (KLB)) [s⁻¹]	Binder
99	0.099	1e-07	16H7 variant, light chain N25W (antibody, human IgG4 S228P, lambda, V domains shown, IgG4 backbone) VH: not shown VL: SYVLTQPPSVSVAPGQTARITCGGWNIGSESVHWYQQKPGQAPVLVVYDDSDRPSGIPERFSGSNSGNTATLTISRVEAGDEADYYCQVWDGNSDHVVFGGGTKLTVLG
103	0.131	4.4e-05	16H7 variant, light chain N26L (antibody, human IgG4 S228P, lambda, V domains shown, IgG4 backbone) VH: not shown VL: SYVLTQPPSVSVAPGQTARITCGGNLIGSESVHWYQQKPGQAPVLVVYDDSDRPSGIPERFSGSNSGNTATLTISRVEAGDEADYYCQVWDGNSDHVVFGGGTKLTVLG
106	0.121	3.2e-05	16H7 variant, light chain N25V (antibody, human IgG4 S228P, lambda, V domains shown, IgG4 backbone) VH: not shown VL: SYVLTQPPSVSVAPGQTARITCGGVNIGSESVHWYQQKPGQAPVLVVYDDSDRPSGIPERFSGSNSGNTATLTISRVEAGDEADYYCQVWDGNSDHVVFGGGTKLTVLG
94	0.097	3.7e-05	16H7 variant, light chain N26G (antibody, human IgG4 S228P, lambda, V domains shown, IgG4 backbone) VH: not shown VL: SYVLTQPPSVSVAPGQTARITCGGNGIGSESVHWYQQKPGQAPVLVVYDDSDRPSGIPERFSGSNSGNTATLTISRVEAGDEADYYCQVWDGNSDHVVFGGGTKLTVLG
109	0.134	1.2e-05	16H7 variant, light chain N25L (antibody, human IgG4 S228P, lambda, V domains shown, IgG4 backbone) VH: not shown VL: SYVLTQPPSVSVAPGQTARITCGGLNIGSESVHWYQQKPGQAPVLVVYDDSDRPSGIPERFSGSNSGNTATLTISRVEAGDEADYYCQVWDGNSDHVVFGGGTKLTVLG
